# Values quoted from earlier work as cited in publication PMC2483503.
# Assays:
# Assay in all cases: ITC
# [1] = target: FAK proline-rich peptide (PXXP) (Homo sapiens) (UniProt Q05397)
# [2] = target: FAK peptide FAK peptide (proline-rich and pY motifs) (Homo sapiens) (UniProt Q05397)
# [3] = target: FAK peptide (Homo sapiens) (UniProt Q05397)
# [4] = target: CD3 zeta ITAM N-terminal pY peptide ITAM N-terminal pY peptide (Homo sapiens) (UniProt P20963)
# [5] = target: CD3 zeta ITAM C-terminal pY peptide ITAM C-terminal pY peptide (Homo sapiens) (UniProt P20963)
# [6] = target: CD3 zeta ITAM bisphosphopeptide ITAM bisphosphopeptide (Homo sapiens) (UniProt P20963)
# Sequence of ZAP70 SH2 domains (P43403 1-259): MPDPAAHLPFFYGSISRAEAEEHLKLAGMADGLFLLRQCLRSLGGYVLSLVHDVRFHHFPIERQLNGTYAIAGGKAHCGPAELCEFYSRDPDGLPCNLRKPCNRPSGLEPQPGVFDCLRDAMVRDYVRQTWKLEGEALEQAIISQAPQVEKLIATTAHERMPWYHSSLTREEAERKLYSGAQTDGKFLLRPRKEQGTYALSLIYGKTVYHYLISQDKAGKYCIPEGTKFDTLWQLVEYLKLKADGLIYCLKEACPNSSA
# Sequence of Fyn SH3-SH2 (P06241 82-246): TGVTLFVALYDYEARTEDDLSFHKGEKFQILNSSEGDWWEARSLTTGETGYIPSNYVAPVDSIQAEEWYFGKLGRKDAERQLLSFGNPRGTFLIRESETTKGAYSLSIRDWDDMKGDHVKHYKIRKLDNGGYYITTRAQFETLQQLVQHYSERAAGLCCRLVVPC
# Sequence of FAK peptide FAK peptide (proline-rich and pY motifs) (Homo sapiens) (Q05397 368-403): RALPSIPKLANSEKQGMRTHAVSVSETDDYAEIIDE
# Sequence of Fyn SH3 (P06241 79-146): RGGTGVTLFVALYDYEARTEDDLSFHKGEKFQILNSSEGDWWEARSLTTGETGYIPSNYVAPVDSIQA
# Sequence of FAK peptide (Homo sapiens) (Q05397 2-1052): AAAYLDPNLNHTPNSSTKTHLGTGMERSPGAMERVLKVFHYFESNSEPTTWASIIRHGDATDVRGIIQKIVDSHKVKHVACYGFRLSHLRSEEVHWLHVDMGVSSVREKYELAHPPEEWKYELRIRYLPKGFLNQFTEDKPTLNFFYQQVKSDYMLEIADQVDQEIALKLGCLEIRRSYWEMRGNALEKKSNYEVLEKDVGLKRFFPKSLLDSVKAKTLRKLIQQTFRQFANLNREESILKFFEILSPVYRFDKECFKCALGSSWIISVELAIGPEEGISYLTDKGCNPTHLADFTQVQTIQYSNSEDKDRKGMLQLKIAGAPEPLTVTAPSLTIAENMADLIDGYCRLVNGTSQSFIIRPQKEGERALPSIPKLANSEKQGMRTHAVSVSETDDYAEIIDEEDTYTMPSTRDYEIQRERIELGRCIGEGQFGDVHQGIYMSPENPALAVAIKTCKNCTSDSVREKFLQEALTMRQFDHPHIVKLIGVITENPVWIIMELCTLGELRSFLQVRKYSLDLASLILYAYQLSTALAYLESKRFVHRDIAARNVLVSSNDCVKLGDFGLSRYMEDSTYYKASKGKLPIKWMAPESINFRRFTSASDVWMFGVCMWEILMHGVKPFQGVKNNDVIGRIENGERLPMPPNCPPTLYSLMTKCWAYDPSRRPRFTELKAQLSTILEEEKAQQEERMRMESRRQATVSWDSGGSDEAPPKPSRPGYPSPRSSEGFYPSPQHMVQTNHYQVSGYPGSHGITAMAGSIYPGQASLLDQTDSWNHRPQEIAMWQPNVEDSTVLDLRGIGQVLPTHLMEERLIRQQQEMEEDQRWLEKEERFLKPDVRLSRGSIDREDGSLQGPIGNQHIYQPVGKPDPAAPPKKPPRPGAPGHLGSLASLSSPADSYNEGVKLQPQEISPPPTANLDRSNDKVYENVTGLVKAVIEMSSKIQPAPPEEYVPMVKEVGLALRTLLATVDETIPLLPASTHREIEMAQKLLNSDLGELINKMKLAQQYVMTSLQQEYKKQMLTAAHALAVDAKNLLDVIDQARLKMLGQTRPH
substance,measurement,setting,value
Fyn SH3 (from UniProt P06241),Kd,[1],62 µM
Fyn SH3-SH2 (from UniProt P06241),Kd,[2],0.19 µM
same,Kd,[3],0.19 µM
ZAP70 SH2 domains (from UniProt P43403),Kd,[4],142 µM
same,Kd,[5],333 µM
same,Kd,[6],0.032 µM
